Experimental data from patent publication US20100248975A1, “Fluorogenic peptide substrate arrays for highly multiplexed, real-time monitoring of kinase activities” (priority 2006, published 2010).

Legend:
[1] = system: combination of Abl and Src; assay: Kinase substrate peptide array incubated with mixture of Abl and Src kinases, phospho-specific fluorescent stain; assay type: biochemical; conditions: incubation with combination of Abl and Src; 200 μM ATP, 10 mM MgCl2, 1 hour at 30° C.; FIG. 4C
Excerpt: (§1) An array of 2520 peptides with 6 different amino acid sequences repeated 420 times was synthesized in situ. The six sequences were designed to represent wild type and two mutated versions of substrates of Abl and Src tyrosine kinases. The sequence of the peptides were: Abl (wt)—AIYAAPFK (SEQ ID NO:10); Abl (Mt 1)—ARYAAPDK (SEQ ID NO:11); Abl (Mt 2)—AIGAAPFK (SEQ ID NO:12); Src (wt)—EIYGEFKK (SEQ ID NO:13); Src (mt1)—EAYGEAKK (SEQ ID NO:14); and Src (mt2)—EIAGEFKK (SEQ ID NO:15), as shown in FIG. 3A.
(§2) The array was synthesized on amino derivatized silicon wafers coupled with dO-(N-Boc-2-aminoethyl)-O′—(N-diglycolyl-2-aminoethyl)hexaethyleneglycol molecule for spacing out the peptides from the surface. The peptides were synthesized using photodeprotection and t-Boc protected amino acids.
(§3) The kinase substrate array was then assayed for detecting Abl and Src kinase activity. The protecting groups of the side groups of amino acids were cleaved by HBr/TFA treatment for one hour in the presence of the scavengers thioanisole and pentamethylbenzene. The array was subsequently neutralized by 5% DIEA treatment for 5 minutes. The array was blocked with 2% BSA for 1 hour for eliminating non-specific sticking of the kinase to the array. […] The kinase mixture was washed off and the phosphorylated peptides were detected by incubating the array with a phospho-specific fluorescent stain.

[2] = biological target: Abl kinase (Homo sapiens, UniProt P00519); assay: Kinase substrate peptide array incubated with Abl kinase alone, phospho-specific fluorescent stain; assay type: biochemical; conditions: incubation with Abl alone; 200 μM ATP, 10 mM MgCl2, 1 hour at 30° C.; FIG. 4A
Abl kinase (Homo sapiens, UniProt P00519), sequence (P00519 whole entry): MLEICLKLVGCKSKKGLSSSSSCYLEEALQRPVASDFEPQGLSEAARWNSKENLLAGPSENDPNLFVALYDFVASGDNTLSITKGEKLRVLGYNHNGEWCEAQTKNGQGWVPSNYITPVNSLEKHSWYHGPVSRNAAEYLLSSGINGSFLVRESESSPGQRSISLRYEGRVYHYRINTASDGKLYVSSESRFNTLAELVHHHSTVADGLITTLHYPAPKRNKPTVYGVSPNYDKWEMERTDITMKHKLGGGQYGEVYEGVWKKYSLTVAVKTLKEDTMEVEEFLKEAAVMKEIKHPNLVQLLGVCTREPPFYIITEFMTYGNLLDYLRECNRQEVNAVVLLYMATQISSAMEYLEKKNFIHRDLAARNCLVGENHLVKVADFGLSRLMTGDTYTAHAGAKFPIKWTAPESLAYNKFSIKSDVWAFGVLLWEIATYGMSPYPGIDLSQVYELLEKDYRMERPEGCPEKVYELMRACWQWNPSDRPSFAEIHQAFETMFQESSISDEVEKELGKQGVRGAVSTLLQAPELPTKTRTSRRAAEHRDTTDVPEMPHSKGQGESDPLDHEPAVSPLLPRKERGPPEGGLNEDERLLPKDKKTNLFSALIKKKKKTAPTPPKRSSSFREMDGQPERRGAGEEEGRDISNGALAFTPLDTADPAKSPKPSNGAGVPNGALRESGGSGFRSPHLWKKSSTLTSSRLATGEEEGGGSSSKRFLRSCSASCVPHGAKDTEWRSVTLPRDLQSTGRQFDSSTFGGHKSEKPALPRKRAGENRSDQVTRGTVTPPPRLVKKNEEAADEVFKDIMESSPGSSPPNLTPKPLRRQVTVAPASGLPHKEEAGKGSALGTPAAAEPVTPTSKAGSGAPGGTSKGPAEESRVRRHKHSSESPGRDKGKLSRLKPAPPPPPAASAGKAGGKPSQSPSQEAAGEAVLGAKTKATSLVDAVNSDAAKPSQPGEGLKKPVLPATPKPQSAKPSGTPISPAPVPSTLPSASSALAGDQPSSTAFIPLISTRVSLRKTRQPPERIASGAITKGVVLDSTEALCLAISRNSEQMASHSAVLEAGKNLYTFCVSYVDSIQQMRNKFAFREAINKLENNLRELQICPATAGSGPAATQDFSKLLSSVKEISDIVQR
Excerpt: as §1, §2, §3

[3] = system: T1, Src (wt) substrate peptide EIYGEFKK
T1 sequence: EIYGEFKK

[4] = system: T2, Abl (wt) substrate peptide AIYAAPFK
T2 sequence: AIYAAPFK

[5] = system: T3, Abl (Mt 1) substrate peptide ARYAAPDK
T3 sequence: ARYAAPDK

[6] = system: T4, Abl (Mt 2) substrate peptide AIGAAPFK
T4 sequence: AIGAAPFK

[7] = system: T5, Src (mt2) substrate peptide EIAGEFKK
T5 sequence: EIAGEFKK

[8] = system: T6, Src (mt1) substrate peptide EAYGEAKK
T6 sequence: EAYGEAKK

[9] = biological target: Src kinase (Homo sapiens, UniProt P12931); assay: Kinase substrate peptide array incubated with Src kinase alone, phospho-specific fluorescent stain; assay type: biochemical; conditions: incubation with Src alone; 200 μM ATP, 10 mM MgCl2, 1 hour at 30° C.; FIG. 4B
Excerpt: as §1, §2, §3

Abl kinase, sequence (P00519 whole entry): as above

phosphorylation of immobilized peptide (fluorescence of array spots) [1]	phosphorylation of immobilized peptide (fluorescence of array spots) [2]	phosphorylation of immobilized peptide (fluorescence of array spots) [9]	Substance	phosphorylation of the arrayed peptide, detected with a phospho-specific fluorescent stain [3]	phosphorylation of the arrayed peptide, detected with a phospho-specific fluorescent stain [4]	phosphorylation of the arrayed peptide, detected with a phospho-specific fluorescent stain [5]	phosphorylation of the arrayed peptide, detected with a phospho-specific fluorescent stain [6]	phosphorylation of the arrayed peptide, detected with a phospho-specific fluorescent stain [7]	phosphorylation of the arrayed peptide, detected with a phospho-specific fluorescent stain [8]
phosphorylated	phosphorylated	–	AIYAAPFK [SEQ ID NO:10, wild type substrate peptide of Abl tyrosine kinase, synthesized in situ on array]	–	–	–	–	–	–
–	–	–	Abl kinase	only the corresponding wild type substrate peptide (either SEQ NO:10 or 13, respectively) was phosphorylated (this peptide not phosphorylated)	in the presence of one kinase, only the corresponding wild type substrate peptide (either SEQ NO:10 or 13, respectively) was phosphorylated	only the corresponding wild type substrate peptide (either SEQ NO:10 or 13, respectively) was phosphorylated (this peptide not phosphorylated)	only the corresponding wild type substrate peptide (either SEQ NO:10 or 13, respectively) was phosphorylated (this peptide not phosphorylated)	only the corresponding wild type substrate peptide (either SEQ NO:10 or 13, respectively) was phosphorylated (this peptide not phosphorylated)	only the corresponding wild type substrate peptide (either SEQ NO:10 or 13, respectively) was phosphorylated (this peptide not phosphorylated)
phosphorylated	–	phosphorylated	EIYGEFKK [SEQ ID NO:13, wild type substrate peptide of Src tyrosine kinase, synthesized in situ on array]	–	–	–	–	–	–
–	–	–	Src kinase	in the presence of one kinase, only the corresponding wild type substrate peptide (either SEQ NO:10 or 13, respectively) was phosphorylated	only the corresponding wild type substrate peptide (either SEQ NO:10 or 13, respectively) was phosphorylated (this peptide not phosphorylated)	only the corresponding wild type substrate peptide (either SEQ NO:10 or 13, respectively) was phosphorylated (this peptide not phosphorylated)	only the corresponding wild type substrate peptide (either SEQ NO:10 or 13, respectively) was phosphorylated (this peptide not phosphorylated)	only the corresponding wild type substrate peptide (either SEQ NO:10 or 13, respectively) was phosphorylated (this peptide not phosphorylated)	only the corresponding wild type substrate peptide (either SEQ NO:10 or 13, respectively) was phosphorylated (this peptide not phosphorylated)
